Source: PMC11242853, “The Antimicrobial Activity of Human Defensins at Physiological Non-Permeabilizing Concentrations Is Caused by the Inhibition of the Plasma Membrane H^+-ATPases” (International Journal of Molecular Sciences, 2024)

Columns and labels:
C. albicans cells [1] = test: Oxygen consumption measurement (polarographic), C. albicans; type: cell-based, Candida albicans; details: after 30 min; defensins 2 x NPIC, human lactoferrin 20 μM, piericidin A 32 µM; preincubated 15 min at 37 °C; untreated cells 94% ± 2%; means ± SD, three experiments
Protocol: (§1) Oxygen consumption by C. albicans and P. aeruginosa cells was determined by polarographically using a biological oxygen monitor (dual digital-model 20; Rank Brothers Ltd., Cambridge, UK) at 25 °C. The apparatus consisted of a twin water-jacketed closed sample chamber, which enabled a control experiment to be conducted concurrently. The cells were grown to mid-log phase in SDB (C. albicans) or TSB (P. aeruginosa), washed twice in Tris buffer, and resuspended in the same buffer. Cell suspensions (approximately 10^7 cells/mL) were preincubated with defensins (2 x NPIC), human lactoferrin (20 μM), or piericidin A (32 μM) for 15 min at 37 °C. Oxygen consumption was recorded at 5-min intervals for a period of 30 min. Three independent experiments were performed, and the data are means ± SD.

C. albicans cells [2] = test: Extracellular potassium measurement (K+-efflux, ICP-MS); type: cell-based, Candida albicans; details: peptides at NPIC / microbicidal concentrations; 10^7 cells/mL, 90 min at 37 °C; steady state compared with maximum intracellular K+ of untreated cells
Protocol: Potassium measurements were performed via inductively coupled plasma mass spectrometry using an Agilent 7700x ICP-MS (Agilent Technologies, Santa Clara, CA, USA). C. albicans cells were cultured in SDB for 16–20 h at 30 °C. The cells were then subcultured in the same media to the mid-logarithmic growth phase and rapidly washed in sterile, deionized, double-distilled water. The cells (10^7 cells/mL) were immediately incubated with the peptides (NPIC) for 90 min at 37 °C. The tubes were centrifuged at 1100× g for 10 min and the supernatants were collected and stored at 4 °C until analysis. The percentage of cytosolic potassium released from cell suspensions treated with nystatin (50 μM) was determined in positive control assays. Total cellular K^+-content (100% value) was measured in the supernatant of cell suspensions previously treated with 0.5% (v/v) HClO4 alone, heated for 1 h at 95 °C, and centrifuged to remove cell debris. Results are expressed as the percentage (means ± SD) of K^+-release relative to the total cellular K^+-content from duplicates of at least three independent assays.

[3] = tested on: Pseudomonas aeruginosa PAO1; test: Antimicrobial spread-plate (CFU) killing assay, P. aeruginosa; type: cell-based
Protocol: (§2) To determine whether the above microbicidal concentrations exert a permeabilizing effect on fungal and bacterial membranes, the influx of the fluorescent nucleic acid-binding dye propidium iodide (PI) in cells incubated with the peptides was assessed. In cells, dye uptake reflects membrane permeabilization, as PI itself cannot permeate through an intact phospholipid bilayer. […] To select an antimicrobial but non-permeabilizing concentration of each peptide for further assays, we defined as a non-permeabilizing inhibitory concentration (NPIC) the antimicrobial inhibitory concentration (≤10% viable cells) that permeabilized ≤ 10% of cells incubated (90 min at 37 °C) in buffer solution.
Microbial susceptibility to the peptides was determined in a spread-plate assay as described previously. Briefly, cell suspensions (10^6 cells/mL) in Tris buffer (10 mM Tris-HCl, pH 7.4) were incubated for 90 min at 37 °C with 2-fold serial peptide dilutions. Peptide concentrations ranged from 0 to 2 μM. After incubation, the number of viable cells was determined by plating aliquots (100 μL) in duplicate on plates (SDA for C. albicans, TSA for P. aeruginosa, and M17G agarified medium for L. lactis) that had been dried for 30 min at room temperature in a laminar flow hood. Plates were incubated for 24–48 h at 30 °C (C. albicans and L. lactis) or 24 h at 37 °C (P. aeruginosa). Dilutions yielding 50–200 colonies were counted. Cell viability values, expressed as colony-forming units (CFUs), were calculated relative to the incubation without added peptides and represent the means ± standard deviation (SD) from duplicates of three independent experiments. For inhibition assays, unless otherwise noted, cell suspensions were preincubated (15 min at 37 °C) with the appropriate inhibitor prior to the addition of peptides, but the inhibitor was present throughout the incubation period with the peptide (90 min at 37 °C). Other specific experimental conditions are described as appropriate. […]

C. albicans cells [4] = test: Total cellular ATP (BacTiter-Glo); type: cell-based, Candida albicans; details: defensins at NPIC, human lactoferrin 5 μM, BM2 peptide 0.25 μM; 10^6 cells/mL; BacTiter-Glo luminescence
Protocol: Total ATP was measured using the BacTiter-Glo^TM Microbial Cell Viability Assay (Promega Co., Madison, WI, USA) according to the manufacturer’s instructions. […] Aliquots (100 µL) were incubated (90 min at 37 °C) with human defensins (NPICs). Human lactoferrin (5 μM) or BM2 peptide (0.25 μM) was used as positive controls. One hundred microliters of the incubation mixture was transferred to an opaque 96-well plate, mixed with an equal volume of BacTiter-Glo^TM reagent, and incubated for 15 min in the dark. The reagent uses a thermostable luciferase to generate luminescence in an ATP-dependent manner. The emitted luminescence was detected using a Varioskan Flash multimode reader (Thermo Scientific, Waltham, MA, USA) with a 10 s shaking and 1 s integration time. A calibration curve was generated for each experiment with ATP standards ranging from 1 to 1000 nM. All assays were performed at least three times in duplicate.

[5] = tested on: Candida albicans ATCC 10231; test: Antimicrobial spread-plate (CFU) killing assay, C. albicans; type: cell-based
Protocol: as §2
Microbial susceptibility to the peptides was determined in a spread-plate assay as described previously. Briefly, cell suspensions (10^6 cells/mL) in Tris buffer (10 mM Tris-HCl, pH 7.4) were incubated for 90 min at 37 °C with 2-fold serial peptide dilutions. Peptide concentrations ranged from 0 to 2 μM. After incubation, the number of viable cells was determined by plating aliquots (100 μL) in duplicate on plates (SDA for C. albicans, TSA for P. aeruginosa, and M17G agarified medium for L. lactis) that had been dried for 30 min at room temperature in a laminar flow hood. Plates were incubated for 24–48 h at 30 °C (C. albicans and L. lactis) or 24 h at 37 °C (P. aeruginosa). Dilutions yielding 50–200 colonies were counted. Cell viability values, expressed as colony-forming units (CFUs), were calculated relative to the incubation without added peptides and represent the means ± standard deviation (SD) from duplicates of three independent experiments. For inhibition assays, unless otherwise noted, cell suspensions were preincubated (15 min at 37 °C) with the appropriate inhibitor prior to the addition of peptides, but the inhibitor was present throughout the incubation period with the peptide (90 min at 37 °C). Other specific experimental conditions are described as appropriate. In some experiments, the concentrations of human lactoferrin against C. albicans (5 μM), P. aeruginosa (1 μM), and L. lactis (0.065 μM) were used in the control assays. In various viability assays, BM2 peptide (0.25 μM), CCCP (50 μM), colistin (4 μg/mL), nystatin (50 μM), oligomycin A (16 μg/mL), piericidin A (32 μM), and TEA (10 mM) were used.

P. aeruginosa cells = test: Oxygen consumption measurement (polarographic), P. aeruginosa; type: cell-based, Pseudomonas aeruginosa; details: after 30 min; defensins 2 x NPIC, human lactoferrin 20 μM, piericidin A 32 µM; preincubated 15 min at 37 °C; untreated cells 83% ± 2%; means ± SD, three experiments
Protocol: as §1

[6] = antimicrobial concentration (≤10% viable cells) that permeabilized ≤10% of cells, 10^6 cells/mL, Tris buffer pH 7.4, 90 min at 37 °C, from Figure 1 data, duplicates of three experiments

B1: human lactoferrin: Recombinant human apo-lactoferrin (hLf), 691 amino acid γ-core protein that inhibits microbial PM H+-ATPases; control (protein, UniProt P02788 20-710, looked up)
Lactotransferrin: GRRRSVQWCAVSQPEATKCFQWQRNMRKVRGPPVSCIKRDSPIQCIQAIAENRADAVTLDGGFIYEAGLAPYKLRPVAAEVYGTERQPRTHYYAVAVVKKGGSFQLNELQGLKSCHTGLRRTAGWNVPIGTLRPFLNWTGPPEPIEAAVARFFSASCVPGADKGQFPNLCRLCAGTGENKCAFSSQEPYFSYSGAFKCLRDGAGDVAFIRESTVFEDLSDEAERDEYELLCPDNTRKPVDKFKDCHLARVPSHAVVARSVNGKEDAIWNLLRQAQEKFGKDKSPKFQLFGSPSGQKDLLFKDSAIGFSRVPPRIDSGLYLGSGYFTAIQNLRKSEEEVAARRARVVWCAVGEQELRKCNQWSGLSEGSVTCSSASTTEDCIALVLKGEADAMSLDGGYVYTAGKCGLVPVLAENYKSQQSSDPDPNCVDRPVEGYLAVAVVRRSDTSLTWNSVKGKKSCHTAVDRTAGWNIPMGLLFNQTGSCKFDEYFSQSCAPGSDPRSNLCALCIGDEQGENKCVPNSNERYYGYTGAFRCLAENAGDVAFVKDVTVLQNTDGNNNEAWAKDLKLADFALLCLDGKRKPVTEARSCHLAMAPNHAVVSRMDKVERLKQVLLHQQAKFGRNGSDCPDKFCLFQSETKNLLFNDNTECLARLHGKTTYEKYLGPQYVAGITNLKKCSTSPLLEACEFLRK
modifications: apo form
notes: control
C. albicans cells [1]
  oxygen consumption percentage of C. albicans: 90% ± 3%
C. albicans cells [2]
  K^+-efflux pattern in C. albicans: partial K^+-efflux
[3]; 50 mM KCl, defensins at NPIC, hLf 1 μM, colistin 4 μg/mL
  effect of high extracellular K+ on pseudomonacidal activity: decreased
[3]; [6]
  non-permeabilizing inhibitory concentration (NPIC), P. aeruginosa: 1 µM
[3]; preincubated 15 min at 37 °C with 50 µM CCCP at pH 7.4, peptides at NPIC
  effect of CCCP on bactericidal activity, P. aeruginosa: slightly reduced
C. albicans cells [4]
  increase in ATP levels compared to the untreated control: ~ 6 fold
[5]; 50 mM KCl, defensins at NPIC, hLf 5 μM, BM2 0.25 μM, nystatin 50 μM
  effect of high extracellular K+ on candidacidal activity: significantly decreased
[5]; [6]
  non-permeabilizing inhibitory concentration (NPIC), C. albicans: 5 µM
[5]; cells preincubated 15 min at 37 °C with 32 µM piericidin A, then peptides (NPIC) 90 min
  effect of piericidin A on candidacidal activity: significantly (p < 0.001) inhibited
[5]; preincubated 15 min at 37 °C with 16 μg/mL oligomycin A, peptides at NPIC
  effect of oligomycin A on candidacidal activity: significantly reduced
[5]; preincubation 15 min at 37 °C with 10 mM TEA+, peptides at NPIC
  effect of Tok1p inhibition (TEA) on candidacidal activity: reduced
P. aeruginosa cells
  O2 consumption of P. aeruginosa: 87% ± 2%
